Like-named read-outs stand apart in the source and are kept apart here.

The record followed here is patent US20260167699A1 (Chugai, published 2026).

Test [1] concerns the target T1, FcγRIa extracellular domain with C-terminal His tag (human, UniProt P12314 16-292).
T1 construct: extracellular domain
Description: SPR (Biacore), captured antibody, FcγR analyte, 1:1 Langmuir fit. For orientation: In SPR one partner is held on a chip, and binding of the other changes the refractive index at the surface.
Description: (§1) The antibody of interest was analyzed for its interaction with FcγR using a BiaCore™ T100, BiaCore™ A100, or BiaCore™ 4000 surface plasmon resonance system (GE Healthcare Japan Corp.). The running buffer used was HBS-EP+ (GE Healthcare Japan Corp.). The assay temperature was set to 25° C. The sensor chips used were: a chip prepared by immobilizing antigenic peptides onto Series S Sensor Chip CM5 (GE Healthcare Japan Corp.) by the amine coupling method; a chip prepared by immobilizing antigenic peptides biotinylated in advance onto Series S Sensor Chip SA (certified) (GE Healthcare Japan Corp.) through their interaction; a chip prepared by immobilizing protein L (ACTIGEN, BioVision, Inc.) onto Series S Sensor Chip CM5 (GE Healthcare Japan Corp.); and a chip prepared by immobilizing protein A/G (Thermo Fisher Scientific K.K.) onto Series S Sensor Chip CM5 (GE Healthcare Japan Corp.). The antibody of interest was captured onto any of these chips and allowed to interact with FcγR diluted with a running buffer. The antibody captured on the chip was washed off through the reaction of 10 mM glycine-HCl (pH 1.5) to regenerate the chip, which was repetitively used.

Test [2] concerns the target T2, FcγRIIIa(V) extracellular domain with C-terminal His tag (human, UniProt P08637 17-208).
T2 construct: extracellular domain; polymorphic form V158; also called FcγRIIIa V type
Described as above.
Description: as §1

The target of test [3] is T3, FcγRIIb extracellular domain with C-terminal His tag (human, UniProt P31994 43-217).
T3 construct: extracellular domain
T3 sequence: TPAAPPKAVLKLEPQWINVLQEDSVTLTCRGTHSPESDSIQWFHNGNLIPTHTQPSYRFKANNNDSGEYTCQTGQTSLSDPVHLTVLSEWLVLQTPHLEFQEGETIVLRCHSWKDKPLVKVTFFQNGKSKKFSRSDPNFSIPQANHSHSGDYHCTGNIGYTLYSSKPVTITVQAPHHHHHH
The description is as above.
Description: as §1

For test [4], the target named is T4, FcγRIIa(R) extracellular domain with C-terminal His tag (human, UniProt P12318 34-217).
T4 construct: extracellular domain; polymorphic form R131; also called FcγRIIa R type
T4 sequence: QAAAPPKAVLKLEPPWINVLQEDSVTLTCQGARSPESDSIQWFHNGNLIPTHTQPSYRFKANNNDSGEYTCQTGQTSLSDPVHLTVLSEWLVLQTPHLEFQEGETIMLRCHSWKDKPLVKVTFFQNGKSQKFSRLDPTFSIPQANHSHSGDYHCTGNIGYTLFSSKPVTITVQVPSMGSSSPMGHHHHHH
Described as above.
Description: as §1

Test [5] concerns the target T5, FcγRIIa(H) extracellular domain with C-terminal His tag (human, UniProt P12318 34-217).
T5 construct: extracellular domain; polymorphic form H131; also called FcγRIIa H type
T5 sequence: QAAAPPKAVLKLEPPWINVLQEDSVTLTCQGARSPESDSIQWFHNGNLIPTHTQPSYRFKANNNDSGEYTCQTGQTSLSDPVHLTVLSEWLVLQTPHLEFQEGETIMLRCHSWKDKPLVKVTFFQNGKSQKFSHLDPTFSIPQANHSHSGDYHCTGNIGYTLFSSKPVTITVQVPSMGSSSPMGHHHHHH
Described as above.
Description: as §1

In test [6] the target is T6, FcγRIIIa(F) extracellular domain with C-terminal His tag (human, UniProt P08637 17-208).
T6 construct: extracellular domain; polymorphic form F158; also called FcγRIIIa F type
Described as above.
Description: as §1

Test [7] addresses T1, FcγRIa extracellular domain with …. Described as above. This is another data set of the same source.
Description: as §1
Test [8] concerns the target T2, FcγRIIIa(V) extracellular domain with …. The description is as above. The source holds these as a separate data set.
Description: as §1
Test [9] has as its target T3, FcγRIIb extracellular domain with …. The test is described as above. The source holds these as a separate data set.
Description: as §1
For test [10], the target named is T4, FcγRIIa(R) extracellular domain with …. Described as above. The source holds these as a separate data set.
Description: as §1
Test [11] has as its target T5, FcγRIIa(H) extracellular domain with …. The description is as above. The source holds these as a separate data set.
Description: as §1
Test [12] has as its target T6, FcγRIIIa(F) extracellular domain with …. The description is as above. This is another data set of the same source.
Description: as §1
The target in test [13] is T7, FcγRIIIa extracellular domain with C-terminal His tag (allotype not given) (UniProt P08637 17-208, limits assumed).
T7 construct: extracellular domain; also called 3a
Description: SPR (Biacore), from the KD values of Table 5.

T2 sequence (P08637 other isoform, or with tags, fused parts or gaps): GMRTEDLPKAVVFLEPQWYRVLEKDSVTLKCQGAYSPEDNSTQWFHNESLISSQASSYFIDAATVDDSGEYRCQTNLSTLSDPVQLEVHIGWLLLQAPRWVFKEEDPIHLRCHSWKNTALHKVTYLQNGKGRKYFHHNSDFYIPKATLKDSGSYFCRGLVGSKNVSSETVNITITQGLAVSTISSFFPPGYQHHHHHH
T1 sequence (P12314 other isoform, or with tags, fused parts or gaps): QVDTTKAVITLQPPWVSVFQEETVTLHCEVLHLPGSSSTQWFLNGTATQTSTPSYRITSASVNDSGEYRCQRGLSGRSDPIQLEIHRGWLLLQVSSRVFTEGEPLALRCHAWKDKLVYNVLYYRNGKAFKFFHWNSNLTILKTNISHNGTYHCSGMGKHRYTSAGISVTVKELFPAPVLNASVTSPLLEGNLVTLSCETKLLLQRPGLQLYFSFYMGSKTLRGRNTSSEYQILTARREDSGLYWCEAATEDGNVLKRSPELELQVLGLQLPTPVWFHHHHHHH
T6 sequence (P08637 other isoform, or with tags, fused parts or gaps): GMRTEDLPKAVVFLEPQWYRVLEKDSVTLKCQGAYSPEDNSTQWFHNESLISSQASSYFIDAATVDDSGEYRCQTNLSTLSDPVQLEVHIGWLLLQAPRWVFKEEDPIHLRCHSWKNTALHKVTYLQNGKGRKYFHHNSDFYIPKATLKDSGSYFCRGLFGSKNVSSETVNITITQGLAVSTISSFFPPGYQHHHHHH

B1: H240-Kn032/H240-Hl032/L73-k0 (antibody, human IgG1, kappa)
heavy 1: QDQLVQSGAEVKKPGASVKVSCKASGFNIKDTYIQWVRQAPGQGLEWMGRIDPLRKQTKYREKFEGRVTITADTSTNTAYMELSSLRSEDTAVYYCVRSGREFDYWGQGTLVTVSSASTKGPSVFPLAPSSKSTSGGTAALGCLVKDYFPEPVTVSWNSGALTSGVHTFPAVLQSSGLYSLSSVVTVPSSSLGTQTYICNVNHKPSNTKVDKKVEPKSCDKTHTCPPCPAPELLGGPDVFLFPPKPKDTLMISRTPEVTCVVVDVSHEDPEVKFNWYVDGVEVHNAKTKPREEQYNSTYRVVSVLTVLHQDWLNGKEYKCKVSNKALPLPEEKTISKAKGQPREPQVCTLPPSRDELTKNQVSLWCLVKGFYPSDIAVEWESNGQPENNYKTTPPVLDSDGSFFLYSKLTVDKSRWQQGNVFSCSVMHEALHNHYTQKSLSLSP
heavy 2: QDQLVQSGAEVKKPGASVKVSCKASGFNIKDTYIQWVRQAPGQGLEWMGRIDPLRKQTKYREKFEGRVTITADTSTNTAYMELSSLRSEDTAVYYCVRSGREFDYWGQGTLVTVSSASTKGPSVFPLAPSSKSTSGGTAALGCLVKDYFPEPVTVSWNSGALTSGVHTFPAVLQSSGLYSLSSVVTVPSSSLGTQTYICNVNHKPSNTKVDKKVEPKSCDKTHTCPPCPAPELLGGPDVFLFPPKPKDTLMISRTPEVTCVVVDVSHEDPEVKFNWYVDGVEVHNAKTKPREEQYNSTYRVVSVLTVLHQDWLNGKEYKCKVSNKALPLPEEKTISKAKGQPREPQVYTLPPSRCELTKNQVSLSCAVKGFYPSDIAVEWESNGQPENNYKTTPPVLDSDGSFFLVSKLTVDKSRWQQGNVFSCSVMHEALHNHYTQKSLSLSP
light: DIQMTQSPSSLSASVGDRVTITCRASQDIHKYIAWYQQKPGQAPRLLIQYTSTLQPGVPSRFSGSGSGTDYTFTISSLQPEDIATYYCLQYEQLRTFGGGTKVEIKRTVAAPSVFIFPPSDEQLKSGTASVVCLLNNFYPREAKVQWKVDNALQSGNSQESVTEQDSKDSTYSLSSTLTLSKADYEKHKVYACEVTHQGLSSPVTKSFNRGEC
notes: anti-epiregulin IgG1 called homodimerized: S239D/A330L/I332E in both H chains, knobs-into-holes; also called H240-Kn032/H240-HI032/L73-k0
What is called Kd is a measure of binding affinity in units of concentration. As to B1, the Kd is 0.073 nM in test [1]; 3.1 nM in test [2]; 620 nM in test [3]; 340 nM in test [4]; 690 nM in [5]; 9.1 nM in [6]. Also, the Kd is 0.073 nM in test [7]; 3.1 nM in [8]; 620 nM in [9]; 340 nM in [10]; 690 nM in [11]; 9.1 nM in [12].

B2: H240-Kn061/H240-Hl071/L73-k0 (antibody, human IgG1, kappa)
heavy 1: QDQLVQSGAEVKKPGASVKVSCKASGFNIKDTYIQWVRQAPGQGLEWMGRIDPLRKQTKYREKFEGRVTITADTSTNTAYMELSSLRSEDTAVYYCVRSGREFDYWGQGTLVTVSSASTKGPSVFPLAPSSKSTSGGTAALGCLVKDYFPEPVTVSWNSGALTSGVHTFPAVLQSSGLYSLSSVVTVPSSSLGTQTYICNVNHKPSNTKVDKKVEPKSCDKTHTCPPCPAPEYYWGPSVFLFPPKPKDTLMISRTPEVTCVVVDVSDEDPEVKFNWYVDGVEVHNAKTKPREEQYNATYRVVSVLTVLHQDWLNGKEYKCKVSNKALPAPIEKTISKAKGQPREPQVCTLPPSRDELTKNQVSLWCLVKGFYPSDIAVEWESNGQPENNYKTTPPVLDSDGSFFLYSKLTVDKSRWQQGNVFSCSVMHEALHNHYTQKSLSLSP
heavy 2: QDQLVQSGAEVKKPGASVKVSCKASGFNIKDTYIQWVRQAPGQGLEWMGRIDPLRKQTKYREKFEGRVTITADTSTNTAYMELSSLRSEDTAVYYCVRSGREFDYWGQGTLVTVSSASTKGPSVFPLAPSSKSTSGGTAALGCLVKDYFPEPVTVSWNSGALTSGVHTFPAVLQSSGLYSLSSVVTVPSSSLGTQTYICNVNHKPSNTKVDKKVEPKSCDKTHTCPPCPAPELLGGPSVFLFPPKPKDTLMISRTPEVTCVVVDVSHEDPEVKFNWYVDGVEVHNAKTKPREEQYNSTYRVVSVLTVLHQDWLNGKEYKCKVSNDALPMPIEETISKAKGQPREPQVYTLPPSRCELTKNQVSLSCAVKGFYPSDIAVEWESNGQPENNYKTTPPVLDSDGSFFLVSKLTVDKSRWQQGNVFSCSVMHEALHNHYTQKSLSLSP
light: DIQMTQSPSSLSASVGDRVTITCRASQDIHKYIAWYQQKPGQAPRLLIQYTSTLQPGVPSRFSGSGSGTDYTFTISSLQPEDIATYYCLQYEQLRTFGGGTKVEIKRTVAAPSVFIFPPSDEQLKSGTASVVCLLNNFYPREAKVQWKVDNALQSGNSQESVTEQDSKDSTYSLSSTLTLSKADYEKHKVYACEVTHQGLSSPVTKSFNRGEC
notes: heterodimerized anti-epiregulin IgG1; L234Y/L235Y/G236W/H268D/S298A in Kn061, K326D/A330M/K334E in Hl071; also called H240-Kn061/H240-HI071/L73-k0
For the molecule B2, the Kd in [1] is 0.14 nM; in [2], 1.8 nM; in test [3], 1200 nM; in test [4], 350 nM; in test [5] it was 280 nM; in test [6], 5.1 nM. For the same molecule, the Kd was determined as 0.14 nM in test [7]; 1.8 nM in [8]; 1200 nM in test [9]; 350 nM in [10]; 280 nM in test [11]; 5.1 nM in test [12].

B3: GpH7-A57/GpH7-B78/GpL16-k0 (antibody, human IgG1, kappa)
heavy 1: QVQLVQSGAEVKKPGASVTVSCKASGYTFTDYEMHWIRQPPGEGLEWIGAIDPKTGDTAYSESFQDRVTLTADKSTSTAYMELSSLTSEDTAVYYCTRFYSYTYWGQGTLVTVSSASTKGPSVFPLAPSSKSTSGGTAALGCLVKDYFPEPVTVSWNSGALTSGVHTFPAVLQSSGLYSLSSVVTVPSSSLGTQTYICNVNHKPSNTKVDKKVEPKSCDKTHTCPPCPAPELLGGPDVFLFPPKPKDTLMISRTPEVTCVVVDVSHEDPEVKFNWYVDGVEVHNAKTKPREEQYNSTYRVVSVLTVLHQDWLNGKEYKCKVSNKALPLPEEKTISKAKGQPREPQVYTLPPSRKELTKNQVSLTCLVKGFYPSDIAVEWESNGQPENNYKTTPPVLDSDGSFFLYSKLTVDKSRWQQGNVFSCSVMHEALHNRYTQKSLSLSP
heavy 2: QVQLVQSGAEVKKPGASVTVSCKASGYTFTDYEMHWIRQPPGEGLEWIGAIDPKTGDTAYSESFQDRVTLTADKSTSTAYMELSSLTSEDTAVYYCTRFYSYTYWGQGTLVTVSSASTKGPSVFPLAPSSKSTSGGTAALGCLVKDYFPEPVTVSWNSGALTSGVHTFPAVLQSSGLYSLSSVVTVPSSSLGTQTYICNVNHKPSNTKVDKKVEPKSCDKTHTCPPCPAPELLGGPDVFLFPPKPKDTLMISRTPEVTCVVVDVSHEDPEVKFNWYVDGVEVHNAKTKPREEQYNSTYRVVSVLTVLHQDWLNGKEYKCKVSNKALPLPEEKTISKAKGQPREPQVYTLPPSRDELTKNQVSLTCLVKGFYPSDIAVEWESNGQPENNYKTTPPVLDSDGSFFLYSKLTVDKSRWQQGNVFSCSVMHEALHNHYTQESLSLSP
light: DIVMTQSPLSLPVTPGEPASISCQASESLVHSNRNTYLHWYLQKPGQSPQLLIYKVSNRFSGVPDRFSGSGSGTDFTLKISRVEAEDVGVYYCSQNTHVPPTFGQGTKVEIERTVAAPSVFIFPPSDEQLKSGTASVVCLLNNFYPREAKVQWKVDNALQSGNSQESVTEQDSKDSTYSLSSTLTLSKADYEKHKVYACEVTHQGLSSPVTKSFNRGEC
notes: Called homodimerized: S239D, A330L, I332E in both H chains
As for B3, in test [13], the “fold FcγRIIIa-binding activity against the corresponding heterodimerized antibody (GpH7-A5/GpH7-B78/GpL16-k0)” value was around 9 times.
